Results taken from article PMC7171158.

Target: NusA-AR2^D443C labeled with fluorescein-5-maleimide (E. coli) (UniProt P0AFF6)
Assay: fluorescence polarisation; fluorescence anisotropy; 25 nM fluorescein-labeled NusA-AR2^D443C with increasing unlabeled protein; 25 °C; 50 mM Na-P pH 6.5, 100 mM NaCl, 150 mM glucose, 5 mM DTT, 0.05% Tween; two-state binding model

Kd: 8 µM
Substance: C-terminal domain of the RNA polymerase α subunit (αCTD) (domain or fragment)
